Molecular target: T1, PKC-theta (Homo sapiens, UniProt Q04759)
T1 construct: His-tag; made in house; host or cells: baculovirus-infected Sf9 cells
Assay: In vitro kinase assay: peptide phosphorylation by PKC-theta
Assay type: biochemical
Details: for Peptide phosphorylation by PKC-theta: Table 8; for PKC theta phosphorylation: normalized to best substrate
Text: A second strategy for validation of the PSSM derived from the methods described herein is to identify sequences represented in the human proteome that have low percentiles derived from the PSSM, to synthesize peptides that have those sequences, and test the efficiency of phosphorylation of those peptides by the kinase of interest. […] The results are shown for individual peptides (FIG. 11, panel A) or for groups of peptides aggregated by percentile prediction (FIG. 11, panel B). As with the testing described above with prospectively chosen peptides, the percentile scores are highly predictive of phosphorylation by the relevant kinase.
An example of the purification procedure used for production of active kinase is as follows. A preparation of PKC-theta was prepared using a Gateway expression construct containing PKC-theta that was expressed in baculovirus, which were used to infect Sf9 cells. The cell pellet from a liter of baculovirus-infected Sf9 cells was resuspended in 20 volumes (60 ml) of extraction buffer (20 mM Na phosphate buffer pH 7.5, 500 mM NaCl, 5 mM pyrophosphate, 10% glycerol, 10 mM imidazole, 1 mM PMSF), sonicated twice for one minute (1 cm tip at 60% power and 50% duty cycle) and cell disruption was verified microscopically. The sample was adjusted to five mM MgCl2 and treated with one U benzonase/ml for an additional 20 minute on ice. The sample was clarified by centrifugation in a JA-20 rotor at 15K for 30 min at 4° C., filtered through a […] filter and applied at 0.5 ml/min to a one ml chelating sepharose column previously charged with nickel and equilibrated with extraction buffer. The column was washed with extraction buffer at one ml/min to baseline and eluted in a 20 ml gradient (20-500 mM imidazole in extraction buffer) into one ml fractions that were analyzed by SDS-PAGE. Fractions with the highest concentration of protein were pooled, were dialyzed twice against one liter of 20 mM Na PO4 pH 7.5, 50 mM NaCl buffer. The kinase pool was dialyzed twice against 20 mM HEPES pH 7.4, 100 mM NaCl, 2 mM EDTA, 5 mM DTT, 0.05% Triton-X-100. After dialysis, the sample was adjusted to 50% glycerol and quick-frozen in a dry ice/ethanol bath.
The conditions of the kinase assay and the amount of active kinase used varied with the kinase and with the accuracy needed. For a typical experiment, 5-20 ng of kinase was used per well and each peptide pool was assayed in duplicate wells. Note that the absolute amount of kinase used was not usually a critical parameter, because the desired information related to specificity of the kinase not its absolute activity, and robustness of the assay depends on comparisons of the same amount of kinase on different peptides. The combination of kinase concentration and assay duration was modified to assure that the stoichiometry of peptide phosphorylation never exceeded 5%. The choice of kinase buffer depended on the kinase being analyzed. For studies of PKC, 100 mM HEPES, 0.05% Triton-X100, 1 mM CaCl2, 20 mM MgCl2, 0.2 mg/ml phosphatidyl serine (Avanti Polar Lipids), PMA 100 ng/ml was typically used. The lipid stock was prepared by transferring 3 mg phosphatidyl serine into iced mixture of 450 μl water plus 50 μl of 10% Triton-X100, sonicating 10 times on ice for 1 sec each.
The kinase reaction mixture was assembled by sequential addition to a tube held on ice of: 5 μl peptide (100 μM for final concentration of 10 μM), 15 μl of kinase (typically 5 ng/well, in appropriate kinase buffer), 30 μl of ATP (1 uCi/well of ^32P-gamma ATP in a stock of 167 μM cold ATP in the kinase buffer; for final concentration for 100 μM ATP). The mixture was rapidly warmed to desired reaction temperature (30° C. for PKC) and incubated for the desired duration (usually 10 minutes). The kinase assay was terminated by transfer to 4° C. water batch, and rapid addition of an equal volume (50 μl) of stop solution [0.1M ATP+0.1M EDTA in water, pH 8]. […]

T1 sequence (Q04759 whole entry): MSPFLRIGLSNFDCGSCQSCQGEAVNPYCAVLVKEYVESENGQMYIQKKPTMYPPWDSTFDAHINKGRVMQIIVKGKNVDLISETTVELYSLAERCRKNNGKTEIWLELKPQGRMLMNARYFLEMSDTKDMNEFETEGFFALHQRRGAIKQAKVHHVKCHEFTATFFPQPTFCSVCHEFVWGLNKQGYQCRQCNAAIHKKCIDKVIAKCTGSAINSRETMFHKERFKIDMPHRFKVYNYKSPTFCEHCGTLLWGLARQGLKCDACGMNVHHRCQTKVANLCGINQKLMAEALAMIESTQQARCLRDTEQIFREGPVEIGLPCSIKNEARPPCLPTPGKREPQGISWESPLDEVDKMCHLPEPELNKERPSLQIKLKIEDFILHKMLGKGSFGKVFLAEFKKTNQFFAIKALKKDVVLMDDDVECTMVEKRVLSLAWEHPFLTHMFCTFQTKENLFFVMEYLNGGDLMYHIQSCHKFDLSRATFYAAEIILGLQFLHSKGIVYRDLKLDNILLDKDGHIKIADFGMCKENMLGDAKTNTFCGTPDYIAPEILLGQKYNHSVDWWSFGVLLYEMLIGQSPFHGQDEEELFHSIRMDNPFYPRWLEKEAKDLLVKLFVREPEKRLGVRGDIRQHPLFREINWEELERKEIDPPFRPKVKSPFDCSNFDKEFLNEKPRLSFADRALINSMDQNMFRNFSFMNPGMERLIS

Substance	Peptide phosphorylation by PKC-theta	PKC theta phosphorylation [%]	phosphorylation by PKC theta (peptide concentration 1 uM)	phosphorylation by PKC theta (peptide concentration 10 uM)
76 (HVRRRRGTFKRSKLRARD) [compound 76]	99	100	–	–
77 (KKKKRASFKRKSSKKG) [compound 77]	–	74	–	–
78 (KFARKSTRRSIRLPE) [compound 78]	–	47	–	–
79 (NRKKKRTSFKRKA) [compound 79]	–	33	–	–
80 (KKKKKRFSFKKSFKL) [compound 80]	–	63	–	–
82 (PRLIRRGSKKRPAR) [compound 82]	–	49	–	–
83 (RKIPKRPGSVHRTPSRQ) [compound 83]	–	92	–	–
84 (QKKSRLRRRASQLKI) [compound 84]	–	87	–	–
85 (RFARKGSLRQKNV) [compound 85]	–	46	–	–
86 (RQRKRKLSFRRRTDKD) [compound 86]	–	38	–	–
89 (EYLERRASRRRAV) [compound 89]	–	60	–	–
90 (AQIVKRASLKRGKQ) [compound 90]	–	38	–	–
92 (DGQKRKKSLRKKLD) [compound 92]	–	47	–	–
93 (AARKKRISVKKKQEQ) [compound 93]	–	40	–	–
94 (KLAVGRHSFSRRSGV) [compound 94]	–	86	–	–
95 (KKKFRTPSFLKKSKK) [compound 95]	–	42	–	–
96 (RGFLRSASLGRRASFHLE) [compound 96]	–	21	–	–
99 (AGWRKKTSFRKPKED) [compound 99]	–	25	–	–
100 (WKGKRRSKARKKRK) [compound 100]	–	56	–	–
101 (GAPPRRSSIRNAH) [compound 101]	–	29	–	–

Substance	Peptide phosphorylation by PKC-theta	PKC theta phosphorylation [%]	phosphorylation by PKC theta (peptide concentration 1 uM)	phosphorylation by PKC theta (peptide concentration 10 uM)
102 (AGSFKRNSIKKIV) [compound 102]	–	28	–	–
103 (LLKKRDSFRTPRDSKLE) [compound 103]	–	24	–	–
104 (EKIKRSSLKKVDSLKK) [compound 104]	–	25	–	–
105 (ALRRPSLRREADD) [compound 105]	–	21	–	–
106 (EILSRRPSYRKILND) [compound 106]	–	19	–	–
107 (QKRHARVTVKYDRRE) [compound 107]	–	40	–	–
108 (KATTKKRTLRKNDRK) [compound 108]	–	32	–	–
109 (KEVVRTDSLKGRRGR) [compound 109]	–	9	–	–
110 (EGGDRRASGRRK) [compound 110]	–	22	–	–
111 (KKKRFSFKKSFKLSGFSFKK) [compound 111]	–	18	–	–
112 (KRPGKKGSNKRPGKR) [compound 112]	–	17	–	–
113 (GENVLKKSMKSRVKG) [compound 113]	–	10	–	–
114 (KKKKRASFKRKSSKKG) [compound 114]	–	–	100	86
115 (NRKKKRTSFKRKA) [compound 115]	–	–	89	77
116 (EEGTFRSSIRRLSTRRR) [compound 116]	–	–	83	78
117 (NRKKKRTSFKRKA) [compound 117]	–	–	84	78
118 (RPQNTLKASKKKKRASFKRK) [compound 118]	–	–	67	52
119 (KKRFSFKKSFKLSGFSFKKN) [compound 119]	–	–	69	28
120 (AKRRRLSSLRASTSK) [compound 120]	–	–	51	51
121 (LRRRSLRRSNSISKSPGP) [compound 121]	57	–	51	57

Substance	Peptide phosphorylation by PKC-theta	PKC theta phosphorylation [%]	phosphorylation by PKC theta (peptide concentration 1 uM)	phosphorylation by PKC theta (peptide concentration 10 uM)
122 (RAITSTLASSFKRRR) [compound 122]	–	–	66	42
123 (KKRFSFKKSFKLSGFSFKKN) [compound 123]	–	–	47	32
124 (PRLIRRGSKKRPAR) [compound 124]	–	–	53	57
125 (PLKEKKRERKTSSKSSVRKR) [compound 125]	–	–	39	100
126 (KAIKAIEGGQKFARKSTRRS) [compound 126]	–	–	46	45
127 (SQVQKQRSAGSFKRNSIKKI) [compound 127]	–	–	45	58
128 (QQVDRERPHVRRRRGTFKRS) [compound 128]	–	–	41	59
129 (VQRHRSMRKTFARYLSFRRD) [compound 129]	–	–	48	25
130 (EYLERRASRRRAV) [compound 130]	–	–	38	44
131 (WKGKRRSKARKKRK) [compound 131]	–	–	53	35
132 (GFLNEPLSSKSQRRKSLKLK) [compound 132]	–	–	34	40
133 (LEKRGMLGKRPRRKSSRRKK) [compound 133]	–	–	46	53
134 (RSRSRSRSKSKDKRKSRKRS) [compound 134]	–	–	36	16
135 (KKKFRTPSFLKKSKK) [compound 135]	–	–	30	36
136 (RARRDSLKKIEIW) [compound 136]	–	–	42	28
137 (PSKSPSKKKKKFRTPSFLKK) [compound 137]	–	–	40	19
138 (EYLERRASRRRAV) [compound 138]	–	–	34	39
139 (RPTPGDGEKRSRIKKSKKRK) [compound 139]	–	–	31	17

Source: US20050064507A1, “Determining kinase specificity” (priority 2003, published 2005)
